Results on one substance are retold here after publication PMC8342802, “A Novel Bacteriocin From Lactobacillus Pentosus ZFM94 and Its Antibacterial Mode of Action” (Frontiers in Nutrition, 2021).

The conditions of data set [1]: cited from earlier work. How it is done: It retained 80.37% of its original antibacterial activity after heating at 80°C for 30 min. The antibacterial activity of pentocin ZFM94 was stable at pH 2–7. […] Pentocin ZFM94 was sensitive to trypsin and pepsin, but not to amylase, lysozyme, lipase, and ribonuclease A. Studies have reported that leuconocin S and carnocin 5 ...

Data set [2] can be described thus: binding to lipid II, agar well-diffusion after mixing with lipid II. In kind it is cell-based, Micrococcus luteus. The settings on record: 10 μm peptide with 20 μm lipid II, 4°C for 1 h, indicator M. luteus 10209. How it is done:
Studies have shown that lipid II was the target of nisin ([25]), and the combination of lipid II and nisin can mediate the formation of pores. Nisin and pentocin ZFM94 were mixed with lipid II, respectively. The final concentration of nisin or pentocin ZFM94 was 10 μm, while the concentration of lipid II was 20 μm. The mixture was maintained at 4°C for 1 h. The changes in the antibacterial activity were detected by the agar well-diffusion method. Micrococcus luteus 10209 was used as the indicator. Then, the size of the inhibition zone was observed.

Where no end group is shown, it is not given here. [ ]: non-standard residue; d: D form. Abu = CC[C@H](N)C(=O)O; Dhb = C/C=C(\N)C(=O)O; Dha = C=C(N)C(=O)O

In the case of “nisin (I[Dhb]AI[Dha]LC[Abu]PGCK[Abu]GALMGCNMK[Abu]A[Abu]CHCSIHV[Dha]K; thioether (positions not given here); not fully specified (residues 7, 11, 19, 26, 28, bridges); also: lantibiotic: thioether bridges and dehydrated residues, places not given here; UniProt P13068 24-57, looked up)”, the “activity at pH close to 7” value in data set [1] is “inactivated”. Moreover, in data set [2], the “antibacterial effect after mixing with lipid II” value is given as “disappeared”.
